Assay results: article PMC7284552

Tested on: T1, A1S_0316 (putative IclR-type transcription factor) (Acinetobacter baumannii ATCC 17978), ORF:5d858888
T1 sequence: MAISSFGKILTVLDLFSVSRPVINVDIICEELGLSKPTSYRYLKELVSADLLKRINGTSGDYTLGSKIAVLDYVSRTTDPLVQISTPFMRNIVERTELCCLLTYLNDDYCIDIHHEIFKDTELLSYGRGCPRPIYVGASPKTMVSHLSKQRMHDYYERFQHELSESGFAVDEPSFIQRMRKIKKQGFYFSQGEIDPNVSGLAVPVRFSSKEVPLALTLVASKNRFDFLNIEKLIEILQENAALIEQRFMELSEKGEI
Assay: competition
Details: EMSA: 5 min at 37 C, 5% native PAGE (40:1), 100 V 1.5 h; binding buffer, salt and pH not stated

Question: How did the binding turn out when “GGCAAGCGAAACAAAGAAGTTGTTCATATTTGCTAGTTGGGTAAAAAATTACCGAATTACAACGGAAATTGTAAGTAATTTTGTCAATAATTTACTTGATTAAAATTATCAAGCACTTGGAAAGTCTATCAAGTGTTTGTATGATTCAAATGTGAATAGCTTAAAAATAATACTGGGGTAAAAAAATATCTCAGGGGCCAATAAATTTAGGCTGAGCTTGAACAACAATTGTTATCTCTGGAGGATATCCATGAAATTGAGTCGTATTGCACTTGCTACTATGCTTGTTGCTGCTCCATT (double strand) [AbOmpA promoter (AbOmpAp), -231 to +100]” was run?
Answer: binds
